Source: patent US20130336893A1 (Sanofi, published 2013)
*1 amine or outer side, *2 acyl side, *3 side chain or, on linkers, in order; H or OH if unused. Where no end group is shown, it is not given here. Side-chain parts run from the residue outwards. [ ]: non-standard residue; d: D form. The star is where a group is joined. γGlu = O=C(O)[C@H](CCC(=O)[*:2])N[*:1]; Stearoyl = CCCCCCCCCCCCCCCCCC(=O)*; Palmitoyl = CCCCCCCCCCCCCCCC(=O)*; Orn = NCCC[C@H](N)C(=O)O; Dab = NCC[C@H](N)C(=O)O; Dap = NC[C@H](N)C(=O)O; Aib = CC(C)(N)C(=O)O

B1: SEQ ID NO: (80) (peptide)
peptide: H[dS]QGTFTSDLSKQMESRRAQDFIEWLK[Aib]GGPSSGAPPPK([γGlu-Palmitoyl])-NH2
modifications: N-terminus assumed
SMILES: CCCCCCCCCCCCCCCC(=O)N[C@@H](CCC(=O)NCCCC[C@H](NC(=O)[C@@H]1CCCN1C(=O)[C@@H]1CCCN1C(=O)[C@@H]1CCCN1C(=O)[C@H](C)NC(=O)CNC(=O)[C@H](CO)NC(=O)[C@H](CO)NC(=O)[C@@H]1CCCN1C(=O)CNC(=O)CNC(=O)C(C)(C)NC(=O)[C@H](CCCCN)NC(=O)[C@H](CC(C)C)NC(=O)[C@H](Cc1c[nH]c2ccccc12)NC(=O)[C@H](CCC(=O)O)NC(=O)[C@@H](NC(=O)[C@H](Cc1ccccc1)NC(=O)[C@H](CC(=O)O)NC(=O)[C@H](CCC(N)=O)NC(=O)[C@H](C)NC(=O)[C@H](CCCNC(=N)N)NC(=O)[C@H](CCCNC(=N)N)NC(=O)[C@H](CO)NC(=O)[C@H](CCC(=O)O)NC(=O)[C@H](CCSC)NC(=O)[C@H](CCC(N)=O)NC(=O)[C@H](CCCCN)NC(=O)[C@H](CO)NC(=O)[C@H](CC(C)C)NC(=O)[C@H](CC(=O)O)NC(=O)[C@H](CO)NC(=O)[C@@H](NC(=O)[C@H](Cc1ccccc1)NC(=O)[C@@H](NC(=O)CNC(=O)[C@H](CCC(N)=O)NC(=O)[C@@H](CO)NC(=O)[C@@H](N)Cc1c[nH]cn1)[C@@H](C)O)[C@@H](C)O)[C@@H](C)CC)C(N)=O)C(=O)O
B2: SEQ ID NO: (92) (peptide)
peptide: H[dS]QGTFTSDLSKQMESRRAQDFIEWLKEGGPSSGRPPPSK([γGlu-Palmitoyl])-NH2
modifications: N-terminus assumed
SMILES: CCCCCCCCCCCCCCCC(=O)N[C@@H](CCC(=O)NCCCC[C@H](NC(=O)[C@H](CO)NC(=O)[C@@H]1CCCN1C(=O)[C@@H]1CCCN1C(=O)[C@@H]1CCCN1C(=O)[C@H](CCCNC(=N)N)NC(=O)CNC(=O)[C@H](CO)NC(=O)[C@H](CO)NC(=O)[C@@H]1CCCN1C(=O)CNC(=O)CNC(=O)[C@H](CCC(=O)O)NC(=O)[C@H](CCCCN)NC(=O)[C@H](CC(C)C)NC(=O)[C@H](Cc1c[nH]c2ccccc12)NC(=O)[C@H](CCC(=O)O)NC(=O)[C@@H](NC(=O)[C@H](Cc1ccccc1)NC(=O)[C@H](CC(=O)O)NC(=O)[C@H](CCC(N)=O)NC(=O)[C@H](C)NC(=O)[C@H](CCCNC(=N)N)NC(=O)[C@H](CCCNC(=N)N)NC(=O)[C@H](CO)NC(=O)[C@H](CCC(=O)O)NC(=O)[C@H](CCSC)NC(=O)[C@H](CCC(N)=O)NC(=O)[C@H](CCCCN)NC(=O)[C@H](CO)NC(=O)[C@H](CC(C)C)NC(=O)[C@H](CC(=O)O)NC(=O)[C@H](CO)NC(=O)[C@@H](NC(=O)[C@H](Cc1ccccc1)NC(=O)[C@@H](NC(=O)CNC(=O)[C@H](CCC(N)=O)NC(=O)[C@@H](CO)NC(=O)[C@@H](N)Cc1c[nH]cn1)[C@@H](C)O)[C@@H](C)O)[C@@H](C)CC)C(N)=O)C(=O)O
B3: SEQ ID NO: (88) (peptide)
peptide: H[dS]QGTFTSDLSKQMESRRAQDFIEWLKSGGPSSGAPPPS[Orn]([γGlu-Palmitoyl])-NH2
modifications: N-terminus assumed
SMILES: CCCCCCCCCCCCCCCC(=O)N[C@@H](CCC(=O)NCCC[C@H](NC(=O)[C@H](CO)NC(=O)[C@@H]1CCCN1C(=O)[C@@H]1CCCN1C(=O)[C@@H]1CCCN1C(=O)[C@H](C)NC(=O)CNC(=O)[C@H](CO)NC(=O)[C@H](CO)NC(=O)[C@@H]1CCCN1C(=O)CNC(=O)CNC(=O)[C@H](CO)NC(=O)[C@H](CCCCN)NC(=O)[C@H](CC(C)C)NC(=O)[C@H](Cc1c[nH]c2ccccc12)NC(=O)[C@H](CCC(=O)O)NC(=O)[C@@H](NC(=O)[C@H](Cc1ccccc1)NC(=O)[C@H](CC(=O)O)NC(=O)[C@H](CCC(N)=O)NC(=O)[C@H](C)NC(=O)[C@H](CCCNC(=N)N)NC(=O)[C@H](CCCNC(=N)N)NC(=O)[C@H](CO)NC(=O)[C@H](CCC(=O)O)NC(=O)[C@H](CCSC)NC(=O)[C@H](CCC(N)=O)NC(=O)[C@H](CCCCN)NC(=O)[C@H](CO)NC(=O)[C@H](CC(C)C)NC(=O)[C@H](CC(=O)O)NC(=O)[C@H](CO)NC(=O)[C@@H](NC(=O)[C@H](Cc1ccccc1)NC(=O)[C@@H](NC(=O)CNC(=O)[C@H](CCC(N)=O)NC(=O)[C@@H](CO)NC(=O)[C@@H](N)Cc1c[nH]cn1)[C@@H](C)O)[C@@H](C)O)[C@@H](C)CC)C(N)=O)C(=O)O
B4: SEQ ID NO: (90) (peptide)
peptide: H[dS]QGTFTSDLSKQMESRRAQDFIEWLKSGGPSSGAPPPS[Dap]([γGlu-Palmitoyl])-NH2
modifications: N-terminus assumed
SMILES: CCCCCCCCCCCCCCCC(=O)N[C@@H](CCC(=O)NC[C@H](NC(=O)[C@H](CO)NC(=O)[C@@H]1CCCN1C(=O)[C@@H]1CCCN1C(=O)[C@@H]1CCCN1C(=O)[C@H](C)NC(=O)CNC(=O)[C@H](CO)NC(=O)[C@H](CO)NC(=O)[C@@H]1CCCN1C(=O)CNC(=O)CNC(=O)[C@H](CO)NC(=O)[C@H](CCCCN)NC(=O)[C@H](CC(C)C)NC(=O)[C@H](Cc1c[nH]c2ccccc12)NC(=O)[C@H](CCC(=O)O)NC(=O)[C@@H](NC(=O)[C@H](Cc1ccccc1)NC(=O)[C@H](CC(=O)O)NC(=O)[C@H](CCC(N)=O)NC(=O)[C@H](C)NC(=O)[C@H](CCCNC(=N)N)NC(=O)[C@H](CCCNC(=N)N)NC(=O)[C@H](CO)NC(=O)[C@H](CCC(=O)O)NC(=O)[C@H](CCSC)NC(=O)[C@H](CCC(N)=O)NC(=O)[C@H](CCCCN)NC(=O)[C@H](CO)NC(=O)[C@H](CC(C)C)NC(=O)[C@H](CC(=O)O)NC(=O)[C@H](CO)NC(=O)[C@@H](NC(=O)[C@H](Cc1ccccc1)NC(=O)[C@@H](NC(=O)CNC(=O)[C@H](CCC(N)=O)NC(=O)[C@@H](CO)NC(=O)[C@@H](N)Cc1c[nH]cn1)[C@@H](C)O)[C@@H](C)O)[C@@H](C)CC)C(N)=O)C(=O)O
B5: SEQ ID NO: (91) (peptide)
peptide: H[dS]QGTFTSDLSKQMESRRARLFIEWLKSGGPSSGAPPPSK([γGlu-Palmitoyl])-NH2
modifications: N-terminus assumed
SMILES: CCCCCCCCCCCCCCCC(=O)N[C@@H](CCC(=O)NCCCC[C@H](NC(=O)[C@H](CO)NC(=O)[C@@H]1CCCN1C(=O)[C@@H]1CCCN1C(=O)[C@@H]1CCCN1C(=O)[C@H](C)NC(=O)CNC(=O)[C@H](CO)NC(=O)[C@H](CO)NC(=O)[C@@H]1CCCN1C(=O)CNC(=O)CNC(=O)[C@H](CO)NC(=O)[C@H](CCCCN)NC(=O)[C@H](CC(C)C)NC(=O)[C@H](Cc1c[nH]c2ccccc12)NC(=O)[C@H](CCC(=O)O)NC(=O)[C@@H](NC(=O)[C@H](Cc1ccccc1)NC(=O)[C@H](CC(C)C)NC(=O)[C@H](CCCNC(=N)N)NC(=O)[C@H](C)NC(=O)[C@H](CCCNC(=N)N)NC(=O)[C@H](CCCNC(=N)N)NC(=O)[C@H](CO)NC(=O)[C@H](CCC(=O)O)NC(=O)[C@H](CCSC)NC(=O)[C@H](CCC(N)=O)NC(=O)[C@H](CCCCN)NC(=O)[C@H](CO)NC(=O)[C@H](CC(C)C)NC(=O)[C@H](CC(=O)O)NC(=O)[C@H](CO)NC(=O)[C@@H](NC(=O)[C@H](Cc1ccccc1)NC(=O)[C@@H](NC(=O)CNC(=O)[C@H](CCC(N)=O)NC(=O)[C@@H](CO)NC(=O)[C@@H](N)Cc1c[nH]cn1)[C@@H](C)O)[C@@H](C)O)[C@@H](C)CC)C(N)=O)C(=O)O

target: human GLP-1 receptor (human, UniProt P43220 24-463); assay: cell-based or functional assay

Binder	EC50 hGLP-1R (cAMP formation) [nM]
H[dS]QGTFTSDLSKQMESRRAQDFIEWLK[Aib]GGPSSGAPPPK(Palmitoyl)-NH2 [SEQ ID NO: (81)]	0.0197
HSQGTFTSDLSKQMEERRAQDFIEWLKNGGPSSGAPPPS-NH2 [SEQ ID NO: (15)]	0.0352
H[dS]QGTFTSDLSKQMESRRAQDFIEWLKSGGPSSGAPPPS[Dab]([γGlu-Palmitoyl])-NH2 [SEQ ID NO: (89)]	0.0059
B1	0.0108
Ac-H[dS]QGTFTSDLSKQMESRRAQDFIEWLKSGGPSSGAPPPSK([γGlu-Palmitoyl])-NH2 [SEQ ID NO: (83)]	0.369
H[dS]QGTFTSDLSKQMESRRAQDFIEWLKSGGPSSGAPPPSK([γGlu-γGlu-Palmitoyl])-NH2 [SEQ ID NO: (97)]	0.0047
H[dS]QGTFTSDLSKQMESRRAQDFIEWLKSGGPSSGAPPPSK([γGlu-Stearoyl])-NH2 [SEQ ID NO: (84)]	0.0039
H[dS]QGTFTSDLSKQMESRRAQDFIEWLKSGGPSSGAPPPSK(Stearoyl)-NH2 [SEQ ID NO: (85)]	0.0064
B2	0.006
H[dS]QGTFTSDLSKQMESRRAQDFIEWLKSGGPSSGAPPPSK([γGlu-aleuritolyl])-NH2 [SEQ ID NO: (93)]	0.188
GH[dS]QGTFTSDLSKQMESRRAQDFIEWLKSGGPSSGAPPPSK([γGlu-Palmitoyl])-NH2 [SEQ ID NO: (82)]	2.59
H[dS]QGTFTSDLSKQMESRRAQDFIEWLKSGGPSSGAPPPSK([γGlu-tocopheryl‑succinyl])-NH2 [SEQ ID NO: (86)]	0.0281
B3	0.0051
B4	0.0049
B5	0.0067

target: human glucagon receptor (human, UniProt P47871 26-477); assay: cell-based or functional assay
Sequence (P47871 26-477): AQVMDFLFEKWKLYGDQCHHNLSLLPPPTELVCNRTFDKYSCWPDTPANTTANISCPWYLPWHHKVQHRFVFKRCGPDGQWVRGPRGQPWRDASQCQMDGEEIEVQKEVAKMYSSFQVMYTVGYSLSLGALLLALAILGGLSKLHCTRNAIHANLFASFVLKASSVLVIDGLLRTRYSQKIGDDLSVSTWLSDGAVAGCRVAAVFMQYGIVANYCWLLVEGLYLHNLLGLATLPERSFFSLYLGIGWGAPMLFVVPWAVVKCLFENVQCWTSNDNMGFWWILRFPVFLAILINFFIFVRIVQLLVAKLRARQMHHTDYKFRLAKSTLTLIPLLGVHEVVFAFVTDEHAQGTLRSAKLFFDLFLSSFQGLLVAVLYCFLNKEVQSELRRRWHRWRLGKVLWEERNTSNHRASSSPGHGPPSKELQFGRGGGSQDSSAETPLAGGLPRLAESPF

Binder	EC50 hGlucagonR (cAMP formation) [nM]
H[dS]QGTFTSDLSKQMESRRAQDFIEWLK[Aib]GGPSSGAPPPK(Palmitoyl)-NH2 [SEQ ID NO: (81)]	0.0293
HSQGTFTSDLSKQMEERRAQDFIEWLKNGGPSSGAPPPS-NH2 [SEQ ID NO: (15)]	0.538
H[dS]QGTFTSDLSKQMESRRAQDFIEWLKSGGPSSGAPPPS[Dab]([γGlu-Palmitoyl])-NH2 [SEQ ID NO: (89)]	0.0198
B1	0.0381
Ac-H[dS]QGTFTSDLSKQMESRRAQDFIEWLKSGGPSSGAPPPSK([γGlu-Palmitoyl])-NH2 [SEQ ID NO: (83)]	0.375
H[dS]QGTFTSDLSKQMESRRAQDFIEWLKSGGPSSGAPPPSK([γGlu-γGlu-Palmitoyl])-NH2 [SEQ ID NO: (97)]	0.0363
H[dS]QGTFTSDLSKQMESRRAQDFIEWLKSGGPSSGAPPPSK([γGlu-Stearoyl])-NH2 [SEQ ID NO: (84)]	0.0138
H[dS]QGTFTSDLSKQMESRRAQDFIEWLKSGGPSSGAPPPSK(Stearoyl)-NH2 [SEQ ID NO: (85)]	0.009
B2	0.038
H[dS]QGTFTSDLSKQMESRRAQDFIEWLKSGGPSSGAPPPSK([γGlu-aleuritolyl])-NH2 [SEQ ID NO: (93)]	1.87
GH[dS]QGTFTSDLSKQMESRRAQDFIEWLKSGGPSSGAPPPSK([γGlu-Palmitoyl])-NH2 [SEQ ID NO: (82)]	5.52
H[dS]QGTFTSDLSKQMESRRAQDFIEWLKSGGPSSGAPPPSK([γGlu-tocopheryl‑succinyl])-NH2 [SEQ ID NO: (86)]	0.0218
B3	0.0182
B4	0.0336
B5	0.121
